Laboratory results as given in patent US10053447B2, “Fluorescent compounds” (Pierce Biotechnology, Inc, priority 2010, dated 2018).

Experiments:
[1] = Quantum yield (QY) measurement, Hamamatsu C9920 PL Absolute Quantum Yield Measurement System; format: physicochemical; details: in PBS; listed as 550 Compound 1(isomer 1)-NHS
Protocol: The quantum yield (QY) was determined at an excitation wavelength of 500 nm and 530 nm for inventive and commercial compounds, as shown below
QY measurements were performed in PBS using a Hamamatsu C9920 PL Absolute Quantum Yield Measurement System. The maximum absorbance at a 1 cm pathlength was set to 0.08. The lower values for the excitation at 530 nm was due to the rising emission which was not included in the counting because it was too close to the excitation light.
The quantum yield (QY) was determined at an excitation wavelength of 600 nm for inventive and commercial compounds, as shown below
QY measurements were performed in PBS using a Hamamatsu C9920 PL Absolute Quantum Yield Measurement System. The maximum absorbance at a 1 cm pathlength was set to 0.08.
The quantum yield (QY) was determined at an excitation wavelength of 710 nm for inventive and commercial compounds, as shown below.
QY measurements were performed in PBS using a Hamamatsu C9920 PL Absolute Quantum Yield Measurement System. The maximum absorbance at a 1 cm path length was set to 0.08.

[2] = Absorption profile and fluorescence intensity of the free dyes; format: physicochemical; details: dyes compared with each other (FIG. 1, 25, 52)
[3] = Storage stability at 50° C. under argon; format: physicochemical
Protocol: (§1) The inventive compounds were evaluated for stability. All compounds were packed under argon in plastic vials. The vials sere sealed with a drying pad in an aluminium coated pouch, and then stored at 50° C. for seven days. The results of the stability study for selected compounds are shown below:
Purity was determined based on ester activity.
as §1, with “stability compared to commercial dyes.” for “stability.”, “argon as 1 mg portions” for “argon”, “14” for “seven”
The inventive compound 755 Compound 1 (isomer 1)-NHS was evaluated for stability. The compound was packed under argon in plastic vials. The vials sere sealed with a drying pad in an aluminium coated pouch, and then stored at 50° C. for 14 days. Purity was determined by HPLC before and after storage.

streptavidin (SA) = streptavidin (SA) (Streptomyces avidinii, UniProt P22629); experiment: Labeling efficiency (degree of labeling, mole dye to mole protein ratio) of streptavidin; details: for Compound/Protein SA in PBS purified by PDRR / Compound/Protein SA in PBS purified by gel filtration: PBS pH 7.2; for Compound/Protein SA in PBS purified by PDRR / Compound/Protein SA in PBS purified by gel filtration / Compound/Protein SA in borate purified by gel PDRR / Compound/Protein SA in borate purified by gel filtration: molar excess given in the label; for Compound/Protein SA in borate purified by gel PDRR / Compound/Protein SA in borate purified by gel filtration: borate buffer pH 8.5
streptavidin (SA), sequence (P22629 25-183, species assumed): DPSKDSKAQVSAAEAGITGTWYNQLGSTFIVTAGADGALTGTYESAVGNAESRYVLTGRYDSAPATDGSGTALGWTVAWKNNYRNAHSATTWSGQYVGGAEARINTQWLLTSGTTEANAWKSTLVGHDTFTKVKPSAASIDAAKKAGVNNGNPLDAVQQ
Protocol: Inventive and commercial compounds, each as the NHS ester, were conjugated to goat anti-mouse (GAM), goat anti-rabbit (GAR) antibodies, and streptavidin (SA). GAM, GAR, and SA, at 10 mg/ml in phosphate buffered saline (PBS), were dialyzed against 50 mM borate buffer, pH 8.5. The compounds were reconstituted in dimethylformamide (DMF) at 10 mg/ml and combined at 2×, 4×, 5×, 7.5×, or 10× molar excess with GAM, GAR, or SA for 2 h at room temperature to label the antibodies or SA.
The labeled compounds, also termed dyes or labels, were subjected to PDDR to remove the unlabeled (free) compound; 100 μl of the packed resin was used per mg of protein purified. The purified antibody-labeled dyes were then diluted 1:50 in PBS and scanned for absorbance from 700 nm to 230 nm to determine the protein concentration, and to determine the mole dye to mole protein ratio. Each conjugate was diluted 1:10 in 50% glycerol and heated in the presence of 10 mM dithiothreitol (DTT) for 5 min at 95° C., then separated by electrophoresis on polyacrylamide gels in the presence of sodium dodecyl sulfate (SDS-PAGE). The gels were scanned using the Typhoon 9400 Imager to verify removal of the unconjugated compound. Labeling efficiency was compared, with results showing degree of labeling below.
Compounds 1, 2, and 3, each as the NHS ester, and DyLight 649-NHS were conjugated to goat anti-mouse (GAM) and goat anti-rabbit (GAR) antibodies. GAM and GAR, at a concentration of 10 mg/ml in phosphate buffered saline (PBS), were dialyzed against 50 mM borate buffer, pH 8.5. The compounds were reconstituted in dimethylformamide (DMF) at 10 mg/ml. To label the antibodies, the compounds were added at 2.5× molar excess and 5× molar excess for 2 h at room temperature. Streptavidin (SA) was reconstituted in PBS buffer, pH 7.2, and 50 mM borate buffer, pH 8.5, and labeled with 2.5× molar excess and 4× molar excess of the compound.
The antibody-labeled compounds, also termed dyes or labels, were subjected to gel filtration chromatography (15 cm×0.8 cm columns) or to the PDDR to remove the unlabeled (free) compound; 100 μl of the packed resin was used per mg of protein purified. The purified antibody-labeled dyes were then diluted 1:100 in PBS and scanned for absorbance from 700 nm to 230 nm to determine the protein concentration, and to determine the mole dye to mole protein ratio. Each conjugate was diluted 1:10 in 50% glycerol and heated in the presence of 10 mM dithiothreitol (DTT) for 5 min at 95° C., then separated by electrophoresis on polyacrylamide gels in the presence of sodium dodecyl sulfate (SDS-PAGE). The gels were scanned using the Typhoon 9400 Imager to verify removal of the unconjugated compound. Labeling efficiency was compared using labeling of the compounds to GAM antibody at a 2.5× molar excess of compound, with results shown below.
Labeling efficiency was also compared using labeling of the dyes to streptavidin (SA) at either a 2.5 fold or a 4 fold molar excess of the dye, with SA in PBS, pH 7.2, and borate buffer, pH 8.5.
650 Compound 1 (isomer 2)-TFP, 650 Compound 1 (isomer 1)-TFP, 650 Compound 1 (isomer 2)-TFP, 650 Compound 1-NHS, and DyLight 649-NHS were conjugated to GAM, GAR, and SA. GAM and GAR, at a concentration of 10 mg/ml in phosphate buffered saline (PBS), were dialyzed against 50 mM borate buffer, pH 8.5. The compounds were reconstituted in dimethylformamide (DMF) at 10 mg/ml and used to label antibodies at 5× molar excess of compound for two hours at room temperature to label the antibodies. SA was reconstituted in 50 mM borate buffer, pH 8.5, and combined with 4× molar excess to label the SA.
The antibody-conjugated and SA-conjugated compounds, also termed dyes or labels, were subjected to the PDDR to remove the unlabeled (free) compound. The purified antibodies and SA were then diluted 1:25 in PBS and scanned for absorbance from 700 nm to 230 nm to determine the protein concentration, and to determine the mole dye to mole protein ratio. […]

U2OS cells; A550 cells = experiment: Immunofluorescence cell based assays, summary statements; set-up: species or system human; details: GAM and GAR conjugates
Protocol: The inventive compounds and commercial dye were evaluated for immunofluorescence in cell based assays using the following protocol. Plates containing U2OS cells (human osteosarcoma cell line) were fixed in 4% paraformaldehyde in PBS/0.1% Triton X-100 for 15 min at room temperature. The cells were then permeabilized with 2% BSA in PBS/0.1% Triton X-100 for 30 min at room temperature. Diluted primary antibodies in PBS/0.1% Triton X-100 were added to the plates and incubated overnight at 4° C. The plates were washed 3×100 μl with PBS. Based on the calculated protein concentrations, the conjugates were diluted to 4 μg/ml (1:250 from 1 mg/ml stock) in PBS/0.1% Triton X-100 and added to the plates (50 μl/well) and incubated 1 h in the dark at room temperature. The plates were washed 3×100 μl with PBS. One hundred μl of 2 μg/ml Hoechst dye in PBS was added per well. The plates were then scanned on an ArrayScan® Plate Reader for imaging and quantitation.
The inventive compounds and commercial dyes were evaluated for immunofluorescence in cell based assays using the following protocol. Plates containing A550 cells (adenocarcinoma human alveolar basal epithelial cells, P5, Sep. 23, 2010) and stored at −80° C. were placed at 50° C. for 30 min. The storage buffer (PBS) was removed and then the cells were permeabilized for 15 min (100 μl/well) with 0.1% Triton-X100 in 1×PBS buffer. The plates were blocked for 30 min in 2% BSA in 1×PBS-0.1% Triton-X100 and then incubated with primary antibodies diluted in 2% BSA in 1×PBS, 0.1% Trion-X100, overnight at 4° C. […] The remaining wells were incubated in blocking buffer only (no primary antibody). After overnight incubation, the antibody solution was removed from the wells, and the plates were washed with PBS-Tween (2×100 μl/well). The labeled secondary antibody conjugates, diluted to 4 μg/ml in PBS were added to corresponding wells and incubated for 1 h at room temperature (about 20° C. to about 22° C.). The plates were washed 3×100 μl/well with PBS and Hoechst stain diluted 1 μg/ml in PBS were added to each well (100 μl/well) of each plate. The plates were then scanned on the Thermo Scientific ArrayScan® HCS Reader for imaging and quantitation.

[4] = Spectral properties of the dyes compared with commercially available dyes; format: physicochemical; details: reactive ester form of the dye
[5] = unit size 15 μg, 50° C. for seven days, purity based on ester activity, listed as 550 Compound 1(isomer 1)-NHS
[6] = unit size 50 μg, 50° C. for seven days, purity based on ester activity, listed as 550 Compound 1(isomer 1)-NHS
[7] = unit size 1 mg, 50° C. for seven days, purity based on ester activity
[8] = amount 1 mg, 50° C. for 14 days (650 series)

COCCN1/C(=C/C=C/C2=[N+](CCCCCC(=O)ON3C(=O)CCC3=O)c3ccc(S(=O)(=O)[O-])cc3C2(C)CCCS(=O)(=O)O)C(C)(CCCS(=O)(=O)O)c2cc(S(=O)(=O)O)ccc21 (single isomer, unassigned) [550 Compound 1 (isomer 1)-NHS]
QY excitation at 500 nm [1]: 0.105
QY excitation at 530 nm [1]: 0.098
Absorption profile [2]: very similar profiles
Purity at day 1 [3, 5]: 95%
Purity at day 7 [3, 5]: 91%
Purity at day 1 [3, 6]: 95%
Purity at day 7 [3, 6]: 91%
Purity at day 1 [3, 7]: 96%
Purity at day 7 [3, 7]: 93%

COCCN1/C(=C/C=C/C=C/C2=[N+](CCCCCC(=O)Oc3c(F)c(F)cc(F)c3F)c3ccc(S(=O)(=O)[O-])cc3C2(C)CCCS(=O)(=O)O)C(C)(CCCS(=O)(=O)O)c2cc(S(=O)(=O)O)ccc21 (single isomer, unassigned) [650 Compound 1 (isomer 2)-TFP]
SA (4X) Average (mole dye to mole protein ratio) (streptavidin (SA); TFP or NHS ester, 4X molar excess, borate buffer pH 8.5, PDRR): 2.42

COCCN1/C(=C/C=C/C2=[N+](CCCCCC(=O)O)c3ccc(S(=O)(=O)[O-])cc3C2(C)CCCS(=O)(=O)O)C(C)(CCCS(=O)(=O)O)c2cc(S(=O)(=O)O)ccc21 (stereo not shown) [550 Compound 1, 2-{(E)-3-[1-(5-carboxypentyl)-3-methyl-5-sulfo-3-(3-sulfopropyl)-1,3-dihydro-indol-(2E)-ylidene]-propenyl}-1-(2-methoxy-ethyl)-3-methyl-5-sulfo-3-(3-sulfo-propyl)-3H-indolium]
Immunofluorescence performance of conjugates compared with commercial DyLight dye (U2OS cells; A550 cells): at least similar performance to DyLight 549 conjugates (GAM, GAR), and in some cases superior performance

COCCN1/C(=C/C=C/C=C/C2=[N+](CCCCCC(=O)Oc3c(F)c(F)cc(F)c3F)c3ccc(S(=O)(=O)[O-])cc3C2(C)CCCS(=O)(=O)O)C(C)(CCCS(=O)(=O)O)c2cc(S(=O)(=O)O)ccc21 (stereo not shown) [650 Compound 1-TFP]
Emission (Em) [4]: 672 nm
Excitation (Ex) [4]: 654 nm
ε [4]: 250,000 M−1cm−1
Purity at day 1 [3, 8]: 98%
Purity at day 14 [3, 8]: 97%

Alexa 647-SA-(2.5X): Alexa 647 conjugated to streptavidin (SA) [reference compound]
Compound/Protein SA in PBS purified by PDRR (streptavidin (SA)): 3.5
Compound/Protein SA in PBS purified by gel filtration (streptavidin (SA)): 3.9
Compound/Protein SA in borate purified by gel PDRR (streptavidin (SA)): 2.4
Compound/Protein SA in borate purified by gel filtration (streptavidin (SA)): 2.6
Compound/Protein SA in borate purified by gel PDRR (streptavidin (SA); listed as Alexa647-SA-4X): 3.4
Compound/Protein SA in borate purified by gel filtration (streptavidin (SA); listed as Alexa647-SA-4X): 3.9

Cy5-SA (2.5X): Cy5 conjugated to streptavidin (SA) [reference compound]
Compound/Protein SA in PBS purified by PDRR (streptavidin (SA)): 3.8
Compound/Protein SA in PBS purified by gel filtration (streptavidin (SA)): 4.2
Compound/Protein SA in borate purified by gel PDRR (streptavidin (SA)): 2.0
Compound/Protein SA in borate purified by gel filtration (streptavidin (SA)): 2.3
Compound/Protein SA in borate purified by gel PDRR (streptavidin (SA); listed as Cy5-SA-4X): 3.3
Compound/Protein SA in borate purified by gel filtration (streptavidin (SA); listed as Cy5-SA-4X): 3.8

DyLight 649-SA (2.5X): DyLight 649 conjugated to streptavidin (SA); suffix gives molar excess of dye [reference compound]
Compound/Protein SA in PBS purified by PDRR (streptavidin (SA)): 2.6
Compound/Protein SA in PBS purified by gel filtration (streptavidin (SA)): 3.5
Compound/Protein SA in borate purified by gel PDRR (streptavidin (SA)): 2.2
Compound/Protein SA in borate purified by gel filtration (streptavidin (SA)): 2.3
Compound/Protein SA in borate purified by gel PDRR (streptavidin (SA); listed as DyLight 649-SA-4X): 2.9
Compound/Protein SA in borate purified by gel filtration (streptavidin (SA); listed as DyLight 649-SA-4X): 3.5
